Measurements reported in patent US20110250668.

Biological target: CBD-cohesin from C. thermocellum displayed on the yeast cell surface (CtCBDcoh yeast), P32781
Sequence (P32781 whole entry, looked up): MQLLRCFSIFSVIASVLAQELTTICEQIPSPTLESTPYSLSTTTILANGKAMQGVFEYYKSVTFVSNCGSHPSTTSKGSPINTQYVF

B1: Cel8A cellulase spliced to the Cel48S dockerin with aspartic acid substituted for the No. 18 and No. 50 asparagines, His-tagged (CtCBDcohCel8A48SdocN-D yeast) (protein)
chain: AGVPFNTKYPYGPTSIADNQSEVTAMLKAEWEDWKSKRITSNGAGGYKRVQRDASTNYDTVSEGMGYGLLLAVCFNEQALFDDLYRYVKSHFNGNGLMHWHIDANNNVTSHDGGDGAATDADEDIALALIFADKLWGSSGAINYGQEARTLINNLYNHCVEHGSYVLKPGDRWGGSSVTNPSYFAPAWYKVYAQYTGDTRWNQVADKCYQIVEEVKKYNNGTGLVPDWCTASGTPASGQSYDYKYDATRYGWRTAVDYSWFGDQRAKANCDMLTKFFARDGAKGIVDGYTIQGSKISNNHNASFIGPVAAASMTGYDLNFAKELYRETVAVKDSEYYGYYGNSLRLLTLLYITGNFPNPLSDLSGQPTPPSNPTPSLPPQVVYGPSSGTPSTKLYGDVNDDGKVDSTDAVALKRYVLRSGISINTDNADLNEDGRVDSTDLGILKRYILKEIDTLPYKN
CMC decomposition activity: CMC decomposition activity was increased by amino acid substitution (FIG. 11), indicating improved saccharification ability of the yeast
